Experiments:
[1] = system: Parental U2OS; test: Flow cytometry binding to parental cells; settings: cell culture supernatant containing expressed IgG, anti-Human Fc detection
Experimental: Briefly, a cell line expressing functionally validated CXCR1 derived from U2OS cells was obtained from DiscoveRx and cultured per manufacturer's instructions (Cat#93-0226C3, DiscoveRx Corporation, Freemont, Calif.). The parental cell line U20S was obtained from ATCC and cultured under the same conditions as the CXCR1 cells. Cell culture supernatants from Example 2 above were then tested for binding to cells by flow cytometry. The adherent U20S or CXCR1-U20S cells were dissociated with Accutase (Innovative Cell Technologies, Inc., San Diego, Calif.), neutralized with an equal volume of media containing 10% serum, centrifuged at 1000 g, and resuspended in PBS with 2% BSA. Next, cells were dispensed into microtiter plates to achieve between 30,000 to 300,000 cells per well, centrifuged again, and resuspended in cell culture supernatant containing expressed IgG, or a dilution of IgG-containing cell culture supernatant. A fluorescent-conjugated anti-Human Fc antibody was used to detect binding of the expressedBLV1H12-IL8 fusion proteins to cells.

[2] = Pharmacokinetics of BLV1H12-bGCSF fusion antibodies in mice; assay type: in vivo; settings: BALB/c mice, 70 μg injected
Experimental: For PK study in mice, 70 μg of the immunoglobulin constructs described herein were injected into 3 BALB/c mice per group. Blood samples were drawn from time 0 to 14 days with extended intervals and analyzed by ELISA using anti-human IgG Fc antibody with horseradish peroxidase (HRP) labeled (KPL) and anti-6×His antibody with HRP labeled (Clontech). Data were normalized by taking maximal concentration at the first time point (30 min).

[3] = system: human peripheral blood mononuclear cells (PBMCs); test: Inhibition of human PBMC activation (secreted TNF-α ELISA); assay type: cell-based; settings: PBMCs activated by anti-CD3 and CD28 antibodies, 24 h
Experimental: Human PBMCs were isolated from fresh venous blood of healthy donors through ficoll gradient centrifugation, followed by resuspension in RPMI1640 medium with 10% FBS and plating in 96-well plates at a density of 1×10^6 cells/mL. Human T cells were purified from the isolated PBMCs using T cell enrichment kit. Purified PBMCs and T cells were pretreated for 1 h at 37° C. with 5% CO2 with various concentrations of purified BLV1H12-Moka1 fusion antibodies and then activated by anti-CD3 and CD28 antibodies. After 24 h treatment, supernatant was collected for measurement of the levels of secreted TNF-α using ELISA kit.

[4] = system: TF-1 cells; test: Proliferation assay on TF-1 cells (AlamarBlue); assay type: cell-based; settings: 72 h
Experimental: TF-1 cells were obtained from American Type Culture Collection (ATCC), VA, and cultured in RPMI-1640 medium supplemented with 10% fetal bovine serum (FBS), penicillin, streptomycin and 2 ng/mL granulocyte-macrophage colony-stimulating factor (GM-CSF). For proliferation assay, TF-1 cells were washed three times with RPMI-1640 medium and resuspended in RPMI-1640 medium with 10% FBS and penicillin and streptomycin at a density of 1.5×10^5 cells/ml. Cells were plated in 96-well plates and treated with varied concentrations of BLV1H12-hEPO fusion antibodies. After 72 h of incubation at 37° C. with 5% CO2, cells viabilities were measured using AlamarBlue (Invitrogen) assay following manufacture's instruction. FIG. 21 and Table 18 show the proliferative activity of Ab-hEPO fusion antibodies on TF1 cells.

B1: Ab: bovine BLV1H12 antibody with ultralong CDR3, no inserted polypeptide; heavy chain SEQ ID NO: 24, light chain SEQ ID NO: 23 (antibody)
heavy: QVQLRESGPSLVKPSQTLSLTCTASGFSLSDKAVGWVRQAPGKALEWLGSIDTGGNTGYNPGLKSRLSITKDNSKSQVSLSVSSVTTEDSATYYCTSVHQETKKYQSCPDGYRERSDCSNRPACGTSDCCRVSVFGNCLTTLPVSYSYTYNYEWHVDVWGQGLLVTVSS
light: QAVLNQPSSVSGSLGQRVSITCSGSSSNVGNGYVSWYQLIPGSAPRTLIYGDTSRASGVPDRFSGSRSGNTATLTISSLQAEDEADYFCASAEDSSSNAVFGSGTTLTVLGQPKSPPSVTLFPPSTEELNGNKATLVCLISDFYPGSVTVVWKADGSTITRNVETTRASKQSNSKYAASSYLSLTSSDWKSKGSYSCEVTHEGSTVTKTVKPSECS
In the case of B1, the “Median Arbitrary Fluorescence Units (AFU)” value [1] is reported as 4 AFU, the “Percentage (normalized to maximal concentration at the first time point, 30 min)” value ([2]; day 0.021) is reported as 100.00% and the “Percentage (normalized to maximal concentration at the first time point, 30 min)” value ([2]; day 0.042) is reported as 106.09%. The “Percentage (normalized to maximal concentration at the first time point, 30 min)” value ([2]; day 0.083) was 95.88%, the “Percentage (normalized to maximal concentration at the first time point, 30 min)” value ([2]; day 0.125) was 86.54% and the “Percentage (normalized to maximal concentration at the first time point, 30 min)” value ([2]; day 0.250) was 74.26%. For the same molecule, the “Percentage (normalized to maximal concentration at the first time point, 30 min)” value ([2]; day 1.000) was 52.43%, the “Percentage (normalized to maximal concentration at the first time point, 30 min)” value ([2]; day 2.000) was 39.46% and the “Percentage (normalized to maximal concentration at the first time point, 30 min)” value ([2]; day 3.000) was 36.97%. The “Percentage (normalized to maximal concentration at the first time point, 30 min)” value ([2]; day 8.000) was 45.44%, the “Percentage (normalized to maximal concentration at the first time point, 30 min)” value ([2]; day 10.000) was 40.98% and the “Percentage (normalized to maximal concentration at the first time point, 30 min)” value ([2]; day 14.000) was 51.96%. The “F.I. (secreted TNF-α, ELISA)” value ([3]; 2 nM) was 2334, the “F.I. (secreted TNF-α, ELISA)” value ([3]; 20 nM) was 2186 and the “F.I. (secreted TNF-α, ELISA)” value ([3]; 200 nM) was 1982. The “F.I. (secreted TNF-α, ELISA)” value ([3]; 400 nM) was 1733, the “F.I. (AlamarBlue, cell viability)” value ([4]; 0.00236 nM) was 4274.07 and the “F.I. (AlamarBlue, cell viability)” value ([4]; 0.01178 nM) was 4267.586. For the same molecule, the “F.I. (AlamarBlue, cell viability)” value ([4]; 0.05888 nM) was 3905.529, the “F.I. (AlamarBlue, cell viability)” value ([4]; 0.2944 nM) was 4091.452 and the “F.I. (AlamarBlue, cell viability)” value ([4]; 1.472 nM) was 4109.106. The “F.I. (AlamarBlue, cell viability)” value ([4]; 7.36 nM) was 4071.234, the “F.I. (AlamarBlue, cell viability)” value ([4]; 36.8 nM) was 4100.011 and the “F.I. (AlamarBlue, cell viability)” value ([4]; 184 nM) was 4413.497. For the same molecule, the “F.I. (AlamarBlue, cell viability)” value ([4]; 4.71E−04 nM) was 4223.257 and the “F.I. (AlamarBlue, cell viability)” value ([4]; 9.42E−05 nM) was 4108.119.
